US20210364527A1 (QUANTUM SI, published 2021)
Each block holds one binder with its values, some of them ahead of it. Primed or numbered codes have the meaning given here. Ends that are not written are not given here. FITC′ = not defined here

B2: FITC-labeled FA peptide FAKLDEESILKQK-FITC (peptide)
peptide: FAKLDEESILKQK-{FITC′}
B9: FITC-labeled IA peptide IAKLDEESILKQK-FITC (peptide)
peptide: IAKLDEESILKQK-{FITC′}
B10: FITC-labeled YA peptide YAKLDEESILKQK-FITC (peptide)
peptide: YAKLDEESILKQK-{FITC′}
B16: RA peptide RAKLDEESILKQK (XAKLDEESILKQK, X = R) (peptide)
peptide: RAKLDEESILKQK
notes: Biolayer interferometry single-point screen of UBR-box homologs
B17: FITC-labeled LA peptide LAKLDEESILKQK-FITC (peptide)
peptide: LAKLDEESILKQK-{FITC′}
B18: FITC-labeled WA peptide WAKLDEESILKQK-FITC (peptide)
peptide: WAKLDEESILKQK-{FITC′}

Assays:
[1] = molecular target: B16; experiment: BLI heatmap, single-point screen
[2] = molecular target: T1, ClpS from Thermosynochoccus elongatus (teClpS) (Thermosynechococcus elongatus, UniProt Q8DJY3 6-94); experiment: fluorescence polarization, FITC-peptide with ClpS:streptavidin complex, 23 C
T1 construct: Dye-labelled or streptavidin-complexed depending on the assay; also called Thermosynechococcus elongatus ClpS
T1 sequence: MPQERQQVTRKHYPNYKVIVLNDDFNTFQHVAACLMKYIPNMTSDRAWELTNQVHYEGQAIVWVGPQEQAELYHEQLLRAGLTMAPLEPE

[3] = molecular target: T2, LA peptide LAKLDEESILKQK (XAKLDEESILKQK, X = L); experiment: BLI heatmap
T2 construct: Immobilized on the biolayer interferometry sensor
T2 peptide: LAKLDEESILKQK

[4] = molecular target: T3, IA peptide IAKLDEESILKQK (XAKLDEESILKQK, X = I); experiment: BLI heatmap
T3 construct: Immobilized on the biolayer interferometry sensor
T3 peptide: IAKLDEESILKQK

[5] = molecular target: T4, VA peptide VAKLDEESILKQK (XAKLDEESILKQK, X = V); experiment: BLI heatmap
T4 construct: Immobilized on the biolayer interferometry sensor
T4 peptide: VAKLDEESILKQK

[6] = molecular target: T5, F peptide FAKLDEESILKQK (XAKLDEESILKQK, X = F); experiment: BLI heatmap
T5 construct: Immobilized on the biolayer interferometry sensor
T5 peptide: FAKLDEESILKQK

[7] = molecular target: T6, Y peptide YAKLDEESILKQK (XAKLDEESILKQK, X = Y); experiment: BLI heatmap
T6 construct: Immobilized on the biolayer interferometry sensor
T6 peptide: YAKLDEESILKQK

[8] = molecular target: T7, W peptide WAKLDEESILKQK (XAKLDEESILKQK, X = W); experiment: BLI heatmap
T7 construct: Immobilized on the biolayer interferometry sensor
T7 peptide: WAKLDEESILKQK

[9] = molecular target: T8, Mus musculus UBR-box domain (PS535) (Mus musculus, UniProt Q6WKZ8 98-168); experiment: biolayer interferometry single-point screen, 30 C
T8 sequence: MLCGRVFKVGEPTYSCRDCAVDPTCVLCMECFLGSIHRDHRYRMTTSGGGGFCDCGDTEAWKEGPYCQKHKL

[10] = molecular target: T9, Kluyveromyces lactis UBR-box domain (PS528) (Kluyveromyces lactis, UniProt O60014 101-182); experiment: biolayer interferometry single-point screen, 30 C
T9 construct: UBR-streptavidin complex in fluorescence polarization
T9 sequence: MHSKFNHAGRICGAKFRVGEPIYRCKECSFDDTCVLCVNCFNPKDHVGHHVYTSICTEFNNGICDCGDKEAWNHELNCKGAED

[11] = molecular target: T10, Saccharomyces cerevisiae UBR-box domain (PS538) (Saccharomyces cerevisiae, UniProt P19812 113-194); experiment: biolayer interferometry single-point screen, 30 C
T10 sequence: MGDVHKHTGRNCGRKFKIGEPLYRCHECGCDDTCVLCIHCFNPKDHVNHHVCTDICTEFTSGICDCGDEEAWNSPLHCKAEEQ

[12] = molecular target: T11, RA peptide (N-terminal arginine, penultimate alanine; rest of sequence not given); experiment: fluorescence polarization
T11 peptide: RAKLDEESILKQK-{FITC′}

[13] = molecular target: T1, ClpS from Thermosynochoccus elongatus …; experiment: fluorescence polarization, single point
[14] = molecular target: B17; experiment: fluorescence polarization, single point
[15] = molecular target: B9; experiment: fluorescence polarization, single point
[16] = molecular target: B2; experiment: fluorescence polarization, single point
[17] = molecular target: B10; experiment: fluorescence polarization, single point
[18] = molecular target: B18; experiment: fluorescence polarization, single point

binding result [1]: binds
B1: Brachionus plicatilis UBR-box domain (PS505) (other)
chain: MVCGRVFKSGEPSYFCRECGTDPTCVLCSICFRHSKHRYHKYVMMTSGGGGYCDCGDPEAWKSDPCCELHMP

binding result [3]: no binding
binding result [4]: no binding
binding result [5]: no binding
binding result [6]: no binding
binding result [7]: no binding
binding result [8]: no binding
B3: PS379 (other)
chain: MSTQEEVLEEVKTTTQKENEIVLYNDDYNTFDHVIETLIYACEHTPVQAEQCAILVHYKGKCTVKTGSFDELKPRCSKLLEEGLSAEIV

binding result [9]: binds
binding result [10]: binds
binding result [11]: binds
B4: KA peptide KAKLDEESILKQK (XAKLDEESILKQK, X = K) (peptide)
peptide: KAKLDEESILKQK
notes: as for B16

Kd [12]: 317 nM
B5: PS695 (Bis-PS528, Linker 3) (designed binder)
chain: MHSKFNHAGRICGAKFRVGEPIYRCKECSFDDTCVLCVNCFNPKDHVGHHVYTSICTEFNNGICDCGDKEAWNHELNCKGAEDGSAGSAAGSGEFGSAGSAAGSGEFGSAGSAAGSGEFMHSKFNHAGRICGAKFRVGEPIYRCKECSFDDTCVLCVNCFNPKDHVGHHVYTSICTEFNNGICDCGDKEAWNHELNCKGAEDGGSHHHHHHHHHHGGGSGGGSGGGSGLNDFFEAQKIEWHEGGGSGGGSGGGSGLNDFFEAQKIEWHE
notes: Single polypeptide; the entry includes the C-terminal His/bis-biotinylation tag

Kd [12]: 263 nM
B6: PS693 (Bis-PS528, Linker 1) (designed binder)
chain: MHSKFNHAGRICGAKFRVGEPIYRCKECSFDDTCVLCVNCFNPKDHVGHHVYTSICTEFNNGICDCGDKEAWNHELNCKGAEDGGGSGGGSGGGSGMHSKFNHAGRICGAKFRVGEPIYRCKECSFDDTCVLCVNCFNPKDHVGHHVYTSICTEFNNGICDCGDKEAWNHELNCKGAEDGGSHHHHHHHHHHGGGSGGGSGGGSGLNDFFEAQKIEWHEGGGSGGGSGGGSGLNDFFEAQKIEWHE
notes: as for B5

Kd [12]: 353 nM
B7: PS694 (Bis-PS528, Linker 2) (designed binder)
chain: MHSKFNHAGRICGAKFRVGEPIYRCKECSFDDTCVLCVNCFNPKDHVGHHVYTSICTEFNNGICDCGDKEAWNHELNCKGAEDGSAGSAAGSGEFMHSKFNHAGRICGAKFRVGEPIYRCKECSFDDTCVLCVNCFNPKDHVGHHVYTSICTEFNNGICDCGDKEAWNHELNCKGAEDGGSHHHHHHHHHHGGGSGGGSGGGSGLNDFFEAQKIEWHEGGGSGGGSGGGSGLNDFFEAQKIEWHE
notes: as for B5

binding result [3]: no binding
binding result [4]: no binding
binding result [5]: no binding
binding result [6]: no binding
binding result [7]: no binding
binding result [8]: no binding
B8: PS381 (other)
chain: MVAFSKKWKKDELDKSTGKQKMLILHNDSVNSFDYVIKTLCEVCDHDTIQAEQCAFLTHFKGQCEIAVGEVADLVPLKNKLLNKNLIVSIH

binding result [3]: no binding
binding result [4]: no binding
binding result [5]: no binding
binding result [6]: no binding
binding result [7]: no binding
binding result [8]: no binding
B13: PS373 (other)
chain: MNRIKQEAVRTENLLICSESIRRTPGTMSNEESMFDEVVAVAVAEPETQHDERRGTKPKRQPPYHVILWDDTDHSFDYVIMMMKRLFRMPIEKGFQVAKEVDSSGRAICMTTTLELAELKRDQIHAFGKDELLPRCKGSMSATIEPAEG

Kd [12]: 354 nM
B14: PS690 (Bis-PS621, Linker 1) (designed binder)
chain: MHSKFSHAGRICGAKFKVGEPIYRCKECSFDDTCVLCVNCFNPKDHTGHHVYTTICTEFNNGICDCGDKEAWNHTLFCKAEEGGGGSGGGSGGGSGMHSKFSHAGRICGAKFKVGEPIYRCKECSFDDTCVLCVNCFNPKDHTGHHVYTTICTEFNNGICDCGDKEAWNHTLFCKAEEGGGSHHHHHHHHHHGGGSGGGSGGGSGLNDFFEAQKIEWHEGGGSGGGSGGGSGLNDFFEAQKIEWHE
notes: as for B5

binding result [13]: no binding
Binder: VAKLDEESILKQK-{FITC′} [FITC-labeled VA peptide VAKLDEESILKQK-FITC]

Kd [12]: 369 nM
B15: PS691 (Bis-PS621, Linker 2) (designed binder)
chain: MHSKFSHAGRICGAKFKVGEPIYRCKECSFDDTCVLCVNCFNPKDHTGHHVYTTICTEFNNGICDCGDKEAWNHTLFCKAEEGGSAGSAAGSGEFMHSKFSHAGRICGAKFKVGEPIYRCKECSFDDTCVLCVNCFNPKDHTGHHVYTTICTEFNNGICDCGDKEAWNHTLFCKAEEGGGSHHHHHHHHHHGGGSGGGSGGGSGLNDFFEAQKIEWHEGGGSGGGSGGGSGLNDFFEAQKIEWHE
notes: as for B5

binding result [3]: binds
binding result [4]: no binding
binding result [5]: no binding
binding result [6]: binds
binding result [7]: binds
binding result [8]: binds
B19: PS435 (other)
chain: MTLSVALGPDTQESTQTGTAVSTDTLTAPDIPWNLVIWNDPVNLMSYVSYVFQSYFGYSETKANKLMMEVHKKGRSIVAHGSKEQVEQHAVAMHGYGLWATVEKATGGNSGGGKSGGPGKGKGKRG

The next lines start with the binder.

Binder: B2
binding result [2]: binds

Binder: B9
binding result [13]: no binding

Binder: B10
binding result [2]: binds

B11: PS370 (other)
chain: MFNSLGTVLDPKKSKAKYPEARVIVLDDNFNTFQHVANCLLAIIPRMCEQRAWDLTIKVDKAGSAEVWRGNLEQAELYHEQLFSKGLTMAPIEKT
binding result [4]: no binding
binding result [5]: no binding
binding result [14]: binds
binding result [15]: no binding
binding result [16]: binds
binding result [17]: binds
binding result [18]: binds

B12: HA peptide HAKLDEESILKQK (XAKLDEESILKQK, X = H) (peptide)
peptide: HAKLDEESILKQK
notes: as for B16
binding result [10]: binds

Binder: B16
binding result [9]: binds
binding result [10]: binds
binding result [11]: binds

Binder: B17
binding result [2]: binds

Binder: B18
binding result [2]: binds

B20: PS692 (Bis-PS621, Linker 3) (designed binder)
chain: MHSKFSHAGRICGAKFKVGEPIYRCKECSFDDTCVLCVNCFNPKDHTGHHVYTTICTEFNNGICDCGDKEAWNHTLFCKAEEGGSAGSAAGSGEFGSAGSAAGSGEFGSAGSAAGSGEFMHSKFSHAGRICGAKFKVGEPIYRCKECSFDDTCVLCVNCFNPKDHTGHHVYTTICTEFNNGICDCGDKEAWNHTLFCKAEEGGGSHHHHHHHHHHGGGSGGGSGGGSGLNDFFEAQKIEWHEGGGSGGGSGGGSGLNDFFEAQKIEWHE
notes: as for B5
Kd [12]: 478 nM
